Consider six molecules from patent US20230301998A1 (SANFORD BURNHAM PREBYS MEDICAL DISCOVERY INSTITUTE, published 2023).

The target of test [1] is T1, Flag-tagged SHARPIN (human, UniProt Q9H0F6 1-387).
T1 construct: also called Flag-SHARPIN; not shown: FLAG tag
T1 sequence (looked up): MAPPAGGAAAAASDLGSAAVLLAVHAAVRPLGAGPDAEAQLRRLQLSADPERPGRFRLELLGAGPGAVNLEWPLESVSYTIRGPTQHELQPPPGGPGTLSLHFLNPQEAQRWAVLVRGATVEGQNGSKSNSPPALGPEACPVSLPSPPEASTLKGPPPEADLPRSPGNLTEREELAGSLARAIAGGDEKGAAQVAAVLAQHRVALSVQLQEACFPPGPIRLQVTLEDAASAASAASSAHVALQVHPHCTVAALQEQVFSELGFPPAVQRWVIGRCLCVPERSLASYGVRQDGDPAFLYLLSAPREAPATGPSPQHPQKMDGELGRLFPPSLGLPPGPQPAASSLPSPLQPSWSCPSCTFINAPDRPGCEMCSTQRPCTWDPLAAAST
The experiment in a line: Flag IP of Flag-SHARPIN from WM115 lysate, on-bead tryptic digestion, LC/MS-MS. As to the method:
To identify SHARPIN-interacting proteins, WM115 cells were transfected with Flag-tagged SHARPIN or control empty plasmid. Cell lysates were prepared using 1% Triton X-100 buffer [50 mM Tris-HCl, pH7.4, 1% (v/v) Triton X-100, 150 mM NaCl, 1 mM EDTA, and protease and phosphatase inhibitor cocktails (Thermo Fisher Scientific)]. Lysates were pre-cleared with protein A/G beads (Santa Cruz Biotechnology) for 1 h at 4° C. followed by immunoprecipitation using FLAG-M2-agarose beads (Sigma-Aldrich) overnight at 4° C. Beads were then washed with lysis buffer and TBS containing lx protease inhibitor cocktail before being subjected to on-bead tryptic digestion followed by mass spectrometry. In Vitro Methylation Assay.

In test [2] the target is T2, Gamma-interferon-inducible protein 16 (IFI16) (human, UniProt Q16666 1-785).
T2 construct: Endogenous protein in WM115 / A375
T2 sequence: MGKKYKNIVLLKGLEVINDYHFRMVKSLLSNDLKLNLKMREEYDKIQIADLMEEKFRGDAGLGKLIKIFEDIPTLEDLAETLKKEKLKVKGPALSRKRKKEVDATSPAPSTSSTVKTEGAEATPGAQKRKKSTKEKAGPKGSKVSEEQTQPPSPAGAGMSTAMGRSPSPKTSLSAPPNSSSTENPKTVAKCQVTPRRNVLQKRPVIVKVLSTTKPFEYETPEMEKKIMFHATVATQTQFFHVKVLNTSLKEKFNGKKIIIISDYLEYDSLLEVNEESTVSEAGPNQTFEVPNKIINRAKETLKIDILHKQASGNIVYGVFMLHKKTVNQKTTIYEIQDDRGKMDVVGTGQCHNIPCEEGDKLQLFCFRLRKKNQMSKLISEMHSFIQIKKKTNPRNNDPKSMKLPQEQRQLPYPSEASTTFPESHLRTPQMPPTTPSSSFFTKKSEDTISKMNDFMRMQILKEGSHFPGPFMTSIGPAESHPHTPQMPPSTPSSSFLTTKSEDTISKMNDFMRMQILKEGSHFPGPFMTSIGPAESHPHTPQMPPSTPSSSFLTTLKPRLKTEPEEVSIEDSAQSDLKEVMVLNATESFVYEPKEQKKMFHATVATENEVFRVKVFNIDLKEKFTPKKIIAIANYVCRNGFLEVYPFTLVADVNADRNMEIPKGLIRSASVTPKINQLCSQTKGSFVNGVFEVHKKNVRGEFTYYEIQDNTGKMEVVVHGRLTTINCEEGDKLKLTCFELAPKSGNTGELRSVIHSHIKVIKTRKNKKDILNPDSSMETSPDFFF
Put plainly: co-immunoprecipitation and immunoblot, human melanoma cell lysates (FIGS. 8C, 10C). (In western blotting, separated proteins are transferred to a membrane and probed.)

Test [3] deals with T3, Interferon-activable protein 204 (Mus musculus) (IFI204) (Mus musculus, UniProt P0DOV2 1-619).
T3 construct: also called IF204
T3 sequence: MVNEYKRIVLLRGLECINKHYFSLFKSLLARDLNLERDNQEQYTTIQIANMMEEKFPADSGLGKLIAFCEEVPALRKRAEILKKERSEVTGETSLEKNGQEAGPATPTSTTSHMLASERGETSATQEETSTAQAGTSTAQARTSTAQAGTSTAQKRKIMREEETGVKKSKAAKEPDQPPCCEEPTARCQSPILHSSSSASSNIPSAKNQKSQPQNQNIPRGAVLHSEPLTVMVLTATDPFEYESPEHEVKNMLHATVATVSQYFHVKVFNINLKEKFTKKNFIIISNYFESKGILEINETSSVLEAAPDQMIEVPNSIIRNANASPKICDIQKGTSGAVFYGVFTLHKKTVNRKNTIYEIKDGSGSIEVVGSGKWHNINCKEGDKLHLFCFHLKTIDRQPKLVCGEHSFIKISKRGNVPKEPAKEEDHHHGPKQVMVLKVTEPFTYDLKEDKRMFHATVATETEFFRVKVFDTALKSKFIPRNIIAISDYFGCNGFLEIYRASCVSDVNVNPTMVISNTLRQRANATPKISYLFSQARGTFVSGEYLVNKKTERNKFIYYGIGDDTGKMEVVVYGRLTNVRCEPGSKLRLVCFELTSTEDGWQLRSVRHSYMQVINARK
Put plainly: co-immunoprecipitation and immunoblot, B16 cell lysates (FIG. 8D).

B1: MYL12A (other, human, UniProt P19105 1-171, looked up)
chain: MSSKRTKTKTKKRPQRATSNVFAMFDQSQIQEFKEAFNMIDQNRDGFIDKEDLHDMLASLGKNPTDEYLDAMMNEAPGPINFTMFLTMFGEKLNGTDPEDVIRNAFACFDEEATGTIQEDYLRELLTTMGDRFTDEEVDELYREAPIDKKGNFNYIEFTRILKHGAKDKDD
notes: endogenous protein co-purified from WM115 lysate
As for B1, in test [1], the binding result is reported as “binds”.

B2: GSTP1 (other, human, UniProt P09211 2-210, looked up)
chain: PPYTVVYFPVRGRCAALRMLLADQGQSWKEEVVTVETWQEGSLKASCLYGQLPKFQDGDLTLYQSNTILRHLGRTLGLYGKDQQEAALVDMVNDGVEDLRCKYISLIYTNYEAGKDDYVKALPGQLKPFETLLSQNQGGKTFIVGDQISFADYNLLDLLLIHEVLAPGCLDAFPLLSAYVGRLSARPKLKAFLASPEYVNLPINGNGKQ
notes: as for B1
For the molecule B2, the binding result in test [1] is given as “binds”.

B3: SHARPIN (endogenous, human melanoma cells WM115 / A375) (other, UniProt Q9H0F6 1-387, looked up)
chain: T1 sequence (looked up)
Consider B3, for which the binding result in test [2] is “binds”.

B4: SLC25A4 (other, human, UniProt P12235 2-298, looked up)
chain: GDHAWSFLKDFLAGGVAAAVSKTAVAPIERVKLLLQVQHASKQISAEKQYKGIIDCVVRIPKEQGFLSFWRGNLANVIRYFPTQALNFAFKDKYKQLFLGGVDRHKQFWRYFAGNLASGGAAGATSLCFVYPLDFARTRLAADVGKGAAQREFHGLGDCIIKIFKSDGLRGLYQGFNVSVQGIIIYRAAYFGVYDTAKGMLPDPKNVHIFVSWMIAQSVTAVAGLVSYPFDTVRRRMMMQSGRKGADIMYTGTVDCWRKIAKDEGAKAFFKGAWSNVLRGMGGAFVLVLYDEIKKYV
notes: as for B1
Regarding B4, the binding result in test [1] was “binds”.

B5: MYL128 (other, human, UniProt O14950 1-172, looked up)
chain: MSSKKAKTKTTKKRPQRATSNVFAMFDQSQIQEFKEAFNMIDQNRDGFIDKEDLHDMLASLGKNPTDAYLDAMMNEAPGPINFTMFLTMFGEKLNGTDPEDVIRNAFACFDEEATGTIQEDYLRELLTTMGDRFTDEEVDELYREAPIDKKGNFNYIEFTRILKHGAKDKDD
notes: endogenous protein co-purified from WM115 lysate; also called MYL12B
For B5, the binding result in test [1] is “binds”.

B6: SHARPIN (endogenous, murine B16 melanoma cells) (other, mouse, UniProt Q91WA6 1-380, looked up)
chain: MSPPAGGAAVAADPASPVVLLAVHAAVRPLGAGQDAEAQPRKLQLIADPERPGRFRLGLLGTEPGAVSLEWPLEAICYTVRGPNQHELQPPPGGPGTFSVHFLDPEEAQQWAALVRDATAEGQNGSGSPAPAPAPAMCPISPPCSSMAQIPKATQPEVDLPQSSGNFKKEELATRLSQAIAGGDEKAAAQVAAVLAQHHVALNVQLMEAWFPPGPIRLQVTVEDATSVLSSSSSAHVSLKIHPHCSIAALQDQVFSEFGFPPAVQRWVIGRCLCMPERSLASYGVSQDGDPAFLYLLSAPREVSGQSLQNSKMDRKLGLFPQSLGLPHDLQPSSSSLPSPSQPGWSCPSCTFINASNRPGCEMCSTQRPCAWDPLAAAST
As for B6, in test [3], the binding result is on record as “binds”.
